In patent publication US20230038638A1, “COMPLEMENT FACTOR I-RELATED COMPOSITIONS AND METHODS” (published 2023):
Numbering of substitutions follows the chain as printed. One block for each substance: values may come before it.

Key:
[1] = target: T1, human C4b (human) (UniProt P0C0L5)
T1 sequence: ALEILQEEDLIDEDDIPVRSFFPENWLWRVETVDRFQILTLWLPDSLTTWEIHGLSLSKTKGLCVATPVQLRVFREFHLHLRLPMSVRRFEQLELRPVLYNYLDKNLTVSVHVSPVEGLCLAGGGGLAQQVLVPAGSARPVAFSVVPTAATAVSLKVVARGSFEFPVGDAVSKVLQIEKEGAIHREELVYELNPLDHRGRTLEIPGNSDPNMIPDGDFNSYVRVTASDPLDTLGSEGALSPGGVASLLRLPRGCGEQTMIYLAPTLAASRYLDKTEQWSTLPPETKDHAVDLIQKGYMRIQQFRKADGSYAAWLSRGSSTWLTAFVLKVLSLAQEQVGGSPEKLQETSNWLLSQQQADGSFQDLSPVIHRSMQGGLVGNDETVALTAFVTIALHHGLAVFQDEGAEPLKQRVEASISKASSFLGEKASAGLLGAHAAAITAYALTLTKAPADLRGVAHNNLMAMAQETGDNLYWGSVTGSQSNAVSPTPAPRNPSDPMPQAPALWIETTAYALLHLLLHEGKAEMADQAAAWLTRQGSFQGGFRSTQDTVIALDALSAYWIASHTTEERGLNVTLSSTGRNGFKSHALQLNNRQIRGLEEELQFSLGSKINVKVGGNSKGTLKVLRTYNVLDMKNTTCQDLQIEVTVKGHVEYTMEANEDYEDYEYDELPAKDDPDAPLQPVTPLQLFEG

[2] = target: soluble human C3b (human) (UniProt P01024)
[3] = target: T2, human C4b (human) (UniProt P0C0L4)
T2 sequence: T1 sequence with T151A, G317D, L364P, S365C, I368L, H369D, S420N, A451V, R454L, A530S

[4] = target: soluble human C3b (human) (UniProt P01024); remark: listed apart in the source

Substance: CFI-HSA variant E416A (enzyme)
C4b Screen Ref Fold (fold vs CFI-HSA wild type) [1]: 1.15
iC3b Screen Ref Fold (fold vs CFI-HSA wild type) [2]: 1.08
C4c EC50 (nM) [3]: 425 nM
iC3b EC50 [4]: 12.8 nM

Substance: CFI-HSA variant E457A (enzyme)
C4b Screen Ref Fold (fold vs CFI-HSA wild type) [1]: 4.68
iC3b Screen Ref Fold (fold vs CFI-HSA wild type) [2]: 1.43
C4c EC50 (nM) [3]: 113 nM
iC3b EC50 [4]: 16.9 nM

Substance: CFI-HSA variant E457D (enzyme)
C4b Screen Ref Fold (fold vs CFI-HSA wild type) [1]: 4.7
iC3b Screen Ref Fold (fold vs CFI-HSA wild type) [2]: 1.21
C4c EC50 (nM) [3]: 162 nM
iC3b EC50 [4]: 12.3 nM

Substance: CFI-HSA variant E457G; D425K (enzyme)
C4b Screen Ref Fold (fold of CFI-HSA wild type) [1]: 5.33
iC3b Screen Ref Fold (fold of CFI-HSA wild type) [2]: 1.5
C4c EC50 [3]: 43.3 nM
iC3b EC50 [4]: 4.1 nM

Substance: CFI-HSA variant E457G; E416A (enzyme)
C4b Screen Ref Fold (fold of CFI-HSA wild type) [1]: 4.63
iC3b Screen Ref Fold (fold of CFI-HSA wild type) [2]: 1.41
C4c EC50 [3]: 94.9 nM
iC3b EC50 [4]: 7.1 nM

Substance: CFI-HSA variant E457G; E461G (enzyme)
C4b Screen Ref Fold (fold vs CFI-HSA wild type) [1]: 4.31
iC3b Screen Ref Fold (fold vs CFI-HSA wild type) [2]: 1.28
C4c EC50 (nM) [3]: 222 nM
iC3b EC50 [4]: 22.2 nM

Substance: CFI-HSA variant E457G; E461Q (enzyme)
C4b Screen Ref Fold (fold vs CFI-HSA wild type) [1]: 5.84
iC3b Screen Ref Fold (fold vs CFI-HSA wild type) [2]: 1.44
C4c EC50 (nM) [3]: 53.1 nM
iC3b EC50 [4]: 5.5 nM

Substance: CFI-HSA variant E457G; N422K (enzyme)
C4b Screen Ref Fold (fold of CFI-HSA wild type) [1]: 5.49
iC3b Screen Ref Fold (fold of CFI-HSA wild type) [2]: 1.51
C4c EC50 [3]: 32.6 nM
iC3b EC50 [4]: 5.2 nM

Substance: CFI-HSA variant E457G; N531G; D425R; E416A (enzyme)
C4b Screen Ref Fold (fold of CFI-HSA wild type) [1]: 4.54
iC3b Screen Ref Fold (fold of CFI-HSA wild type) [2]: 2.12
C4c EC50 (nM) [3]: 4.1 nM
iC3b EC50 [4]: 3.1 nM

Substance: CFI-HSA variant E457G; N531G; E461Q; R462K; F464Y; E416A (enzyme)
C4b Screen Ref Fold (fold of CFI-HSA wild type) [1]: 4.38
iC3b Screen Ref Fold (fold of CFI-HSA wild type) [2]: 2.21
C4c EC50 (nM) [3]: 7.5 nM
iC3b EC50 [4]: 5.2 nM

Substance: CFI-HSA variant E457G; P535G (enzyme)
C4b Screen Ref Fold (fold of CFI-HSA wild type) [1]: 1.93
iC3b Screen Ref Fold (fold of CFI-HSA wild type) [2]: 0.68
C4c EC50 [3]: 158 nM
iC3b EC50 [4]: 13.8 nM

Substance: CFI-HSA variant E457G; P535G; D425K (enzyme)
C4b Screen Ref Fold (fold of CFI-HSA wild type) [1]: 4.15
iC3b Screen Ref Fold (fold of CFI-HSA wild type) [2]: 1.02
C4c EC50 [3]: 90 nM
iC3b EC50 [4]: 6 nM

Substance: CFI-HSA variant Y408L; E457G; E461Q; R462K; N531G; R557A (enzyme)
C4c EC50 (nM) [3]: 27.4 nM
iC3b EC50 [4]: 24.2 nM

Substance: CFI-HSA variant Y408L; E457G; E461Q; R462K; N531G; R557K (enzyme)
C4c EC50 (nM) [3]: 17.3 nM
iC3b EC50 [4]: 24.6 nM

Substance: CFI-HSA variant Y408L; N531G; E457G; R462K (enzyme)
C4c EC50 [3]: 23 nM
iC3b EC50 [4]: 6.9 nM

Substance: CFI-HSA variant Y408L; N531G; R557A (enzyme)
C4c EC50 (nM) [3]: 54.5 nM
iC3b EC50 [4]: 51.6 nM

Other lines, results leading:

C4b Screen Ref Fold (fold vs CFI-HSA wild type) [1]: 0.36
iC3b Screen Ref Fold (fold vs CFI-HSA wild type) [2]: 0.96
C4c EC50 (nM) [3]: 640 nM
iC3b EC50 [4]: 26.7 nM
Substance: CFI-HSA variant A502S (enzyme)

C4b Screen Ref Fold (fold vs CFI-HSA wild type) [1]: 0.93
iC3b Screen Ref Fold (fold vs CFI-HSA wild type) [2]: 1.07
C4c EC50 (nM) [3]: 810 nM
iC3b EC50 [4]: 31.2 nM
Substance: CFI-HSA variant A502S; K504Q; F537K (enzyme)

C4b Screen Ref Fold (fold vs CFI-HSA wild type) [1]: 4.93
iC3b Screen Ref Fold (fold vs CFI-HSA wild type) [2]: 1.4
C4c EC50 (nM) [3]: 26.1 nM
iC3b EC50 [4]: 4.9 nM
Substance: CFI-HSA variant D425R; Y408L; N531G; E457G; E461Q; R462K; F464Y (enzyme)

C4b Screen Ref Fold (fold vs CFI-HSA wild type) [1]: 0.09
iC3b Screen Ref Fold (fold vs CFI-HSA wild type) [2]: 0
C4c EC50 (nM) [3]: > 1000 nM
iC3b EC50 [4]: > 500 nM
Substance: CFI-HSA variant D506G (enzyme)

C4b Screen Ref Fold (fold vs CFI-HSA wild type) [1]: 0.01
iC3b Screen Ref Fold (fold vs CFI-HSA wild type) [2]: 0.05
C4c EC50 (nM) [3]: > 1000 nM
iC3b EC50 [4]: 96.8 nM
Substance: CFI-HSA variant E457F (enzyme)

C4b Screen Ref Fold (fold of CFI-HSA wild type) [1]: 4.35
iC3b Screen Ref Fold (fold of CFI-HSA wild type) [2]: 2.48
C4c EC50 (nM) [3]: 59.3 nM
iC3b EC50 [4]: 3.1 nM
Substance: CFI-HSA variant E457G; D425R; E416A (enzyme)

C4b Screen Ref Fold (fold of CFI-HSA wild type) [1]: 5.43
iC3b Screen Ref Fold (fold of CFI-HSA wild type) [2]: 0.99
C4c EC50 [3]: 12.7 nM
iC3b EC50 [4]: 4.4 nM
Substance: CFI-HSA variant E457G; N531G; D425K (enzyme)

C4b Screen Ref Fold (fold of CFI-HSA wild type) [1]: 6.34
iC3b Screen Ref Fold (fold of CFI-HSA wild type) [2]: 0.96
C4c EC50 [3]: 16.9 nM
iC3b EC50 [4]: 7.1 nM
Substance: CFI-HSA variant E457G; N531G; K534Q (enzyme)

C4b Screen Ref Fold (fold of CFI-HSA wild type) [1]: 4.37
iC3b Screen Ref Fold (fold of CFI-HSA wild type) [2]: 1.46
C4c EC50 [3]: 7 nM
iC3b EC50 [4]: 4.7 nM
Substance: CFI-HSA variant E457G; N531G; N422K (enzyme)

C4b Screen Ref Fold (fold of CFI-HSA wild type) [1]: 5.28
iC3b Screen Ref Fold (fold of CFI-HSA wild type) [2]: 2.34
C4c EC50 [3]: 48.3 nM
iC3b EC50 [4]: 8.2 nM
Substance: CFI-HSA variant E457G; N531G; P535G; K534Q (enzyme)

C4b Screen Ref Fold (fold of CFI-HSA wild type) [1]: 5.87
iC3b Screen Ref Fold (fold of CFI-HSA wild type) [2]: 0.92
C4c EC50 [3]: 17.5 nM
iC3b EC50 [4]: 6.7 nM
Substance: CFI-HSA variant E457G; N531G; P558S (enzyme)

C4b Screen Ref Fold (fold vs CFI-HSA wild type) [1]: 0.31
iC3b Screen Ref Fold (fold vs CFI-HSA wild type) [2]: 0.26
C4c EC50 (nM) [3]: 886 nM
iC3b EC50 [4]: 78.7 nM
Substance: CFI-HSA variant E457H (enzyme)

C4b Screen Ref Fold (fold vs CFI-HSA wild type) [1]: 1.75
iC3b Screen Ref Fold (fold vs CFI-HSA wild type) [2]: 0.99
C4c EC50 (nM) [3]: 256 nM
iC3b EC50 [4]: 20.5 nM
Substance: CFI-HSA variant E457I (enzyme)

C4b Screen Ref Fold (fold vs CFI-HSA wild type) [1]: 0.92
iC3b Screen Ref Fold (fold vs CFI-HSA wild type) [2]: 0.98
C4c EC50 (nM) [3]: 373 nM
iC3b EC50 [4]: 15.6 nM
Substance: CFI-HSA variant E530D; F537K (enzyme)

iC3b Screen Ref Fold (fold of reference) [2]: 0.17
C4c EC50 (nM) [3]: > 1000 nM
iC3b EC50 [4]: 53.1 nM
Substance: CFI-HSA variant K504D (enzyme)

C4c EC50 (nM) [3]: 111 nM
iC3b EC50 [4]: 131 nM
Substance: CFI-HSA variant Y408L; E457G; E461Q; R462K; N531G; ΔC-term (Δ558-PFISQYNV (SEQ ID NO: 14)-565) (enzyme)

C4c EC50 (nM) [3]: 173 nM
iC3b EC50 [4]: 110 nM
Substance: CFI-HSA variant Y408L; N531G; ΔC-term (Δ558-PFISQYNV (SEQ ID NO: 14)-565) (enzyme)

C4c EC50 [3]: 95.9 nM
iC3b EC50 [4]: 37.5 nM
Substance: CFI-HSA variant Y408L; WT; GGSSGG (SEQ ID NO: 6); CR1(ccp15-17) (enzyme)
